Values quoted from earlier work, collected in PMC7662862.

Tests used:
CRB3 (Homo sapiens) = CRB3 (Homo sapiens) (UniProt Q9BUF7); experiment: ITC
[1] = molecular target: Merlin N-terminal part (FERM) (Homo sapiens) (UniProt P35240); experiment: SPR
Sequence of UniProt P35240 (P35240 22-311): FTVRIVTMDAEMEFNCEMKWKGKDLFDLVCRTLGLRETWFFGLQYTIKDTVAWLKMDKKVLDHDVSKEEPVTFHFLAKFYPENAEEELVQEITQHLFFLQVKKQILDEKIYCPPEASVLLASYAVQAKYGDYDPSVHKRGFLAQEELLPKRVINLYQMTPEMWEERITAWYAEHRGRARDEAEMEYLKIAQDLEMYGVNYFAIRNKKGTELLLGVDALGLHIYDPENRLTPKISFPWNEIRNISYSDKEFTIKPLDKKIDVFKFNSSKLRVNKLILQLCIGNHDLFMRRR

Sequence of UniProt Q9BUF7 (Q9BUF7 27-120): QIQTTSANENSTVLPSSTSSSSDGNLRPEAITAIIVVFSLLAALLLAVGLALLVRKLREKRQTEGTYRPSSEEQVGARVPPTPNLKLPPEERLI

| Substance | Kd (CRB3 (Homo sapiens)) [nM] | Kd [1] [nM] |
| --- | --- | --- |
| MPP5 PDZ-SH3-GUK (from UniProt Q8N3R9) | 70 |  |
| MPP1 (from UniProt Q00013) |  | 3.7 |
